Columns and labels:
Assay in all cases: cell-based or functional assay
[1] = target: 2019-nCoV S protein (2019-nCoV-S, as encoded in pAAV-IRES-EGFP-2019-nCoV-S / pcDNA3.1) (2019-nCoV (SARS-CoV-2)) (UniProt P0DTC2)
[2] = target: WIV1-CoV S protein (pcDNA3.1-WIV1-CoV-S, on pseudovirus) (WIV1-CoV (SARS-like virus from bats))
[3] = target: Rs3367-CoV S protein (pcDNA3.1-Rs3367-CoV-S, on pseudovirus) (Rs3367-CoV (SARS-like virus from bats))
[4] = target: SARS-CoV S protein (pcDNA3.1-SARS-CoV-S, on pseudovirus) (SARS-CoV) (UniProt P59594)
[5] = target: S protein of live 2019-nCoV (SARS-CoV-2) virus (2019-nCoV (SARS-CoV-2)) (UniProt P0DTC2)

Substance	Inhibitory Activity, IC50 (pseudovirus infection of HuH7, luciferase) [1]	Inhibitory Activity, IC50 (pseudovirus infection of HuH7, luciferase) [2]	Inhibitory Activity, IC50 (pseudovirus infection of HuH7, luciferase) [3]	Inhibitory Activity, IC50 (pseudovirus infection of HuH7, luciferase) [4]	IC50, 2019-nCoV live virus (plaque reduction assay, VERO-E6) [5]
EK1-chol (peptide)	20 nM	40 nM	30 nM	10 nM	36.5 nM
EK1-plam (peptide)	360 nM	100 nM	130 nM	170 nM	436 nM

Reference: patent publication US20220409694A1, “POLYPEPTIDE, AND PREPARATION METHOD THEREFOR AND USE THEREOF” (SHANXI JINBO BIO-PHARMACEUTICAL CO., LTD., priority 2020, published 2022)
